Two molecules from publication PMC9186069, “Borrelia miyamotoi FbpA and FbpB Are Immunomodulatory Outer Surface Lipoproteins With Distinct Structures and Functions” (Frontiers in Immunology, 2022) can be followed below.

Holding throughout (conditions): both partners purified
For one assay, the target named is active C1r (human, UniProt P00736, activated two-chain form, cleaved between 463 and 464 (cleavage limits from UniProt chain features), heavy and light chains disulfide-linked; plasma-purified glycoprotein; native C1r forms a Ca-depend). Description: SPR; FbpA-C or FbpB-C immobilised by amine coupling; full-length C1r zymogen or active C1r injected, fivefold dilution series 0-100 nM, single cycle, final dissociation 1 hour; Biacore T200, 25°C; kinetic fits.

Another assay has as its target T1, C1r zymogen (human, UniProt P00736 18-705).
T1 construct: also called zymogen form of full-length purified C1r; zymogen C1r; source: bought: Complement Technology, Inc. (purified)
T1 sequence: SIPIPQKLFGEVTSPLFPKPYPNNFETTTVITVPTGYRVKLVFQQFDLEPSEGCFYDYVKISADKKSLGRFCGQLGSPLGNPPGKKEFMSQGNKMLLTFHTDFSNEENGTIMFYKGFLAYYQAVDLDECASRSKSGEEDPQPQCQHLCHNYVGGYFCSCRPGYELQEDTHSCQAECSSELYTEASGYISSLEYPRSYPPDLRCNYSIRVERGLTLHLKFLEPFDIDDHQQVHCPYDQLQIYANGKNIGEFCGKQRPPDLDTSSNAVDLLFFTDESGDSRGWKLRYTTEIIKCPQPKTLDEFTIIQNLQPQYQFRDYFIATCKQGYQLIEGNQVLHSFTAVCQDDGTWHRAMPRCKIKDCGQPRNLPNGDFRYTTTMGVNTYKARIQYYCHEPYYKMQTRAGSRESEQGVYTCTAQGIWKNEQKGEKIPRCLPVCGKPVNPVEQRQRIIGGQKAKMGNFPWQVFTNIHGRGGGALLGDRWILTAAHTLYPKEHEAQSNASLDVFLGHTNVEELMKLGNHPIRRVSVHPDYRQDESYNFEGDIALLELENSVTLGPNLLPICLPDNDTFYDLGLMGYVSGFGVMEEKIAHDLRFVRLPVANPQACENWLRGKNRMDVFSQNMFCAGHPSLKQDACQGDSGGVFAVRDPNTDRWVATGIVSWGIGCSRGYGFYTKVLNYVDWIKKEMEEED
Described as above.

The next assay addresses T2, C1r-CCP2-SP (human).
T2 construct: source: recombinant (pT7HMT-C1r-CCP2-SP), purified by previously published protocols with a final gel filtration step
The assay is described as follows: SPR; FbpA-C, FbpB-C or FbpA DA-C immobilised by amine coupling; C1r-CCP2-SP injected, twofold dilution series 0-100 nM, multi-cycle; Biacore T200, 25°C, 30 μL/min; kinetic fits.

T2 sequence (A0A0U2RP97 entry or part of it): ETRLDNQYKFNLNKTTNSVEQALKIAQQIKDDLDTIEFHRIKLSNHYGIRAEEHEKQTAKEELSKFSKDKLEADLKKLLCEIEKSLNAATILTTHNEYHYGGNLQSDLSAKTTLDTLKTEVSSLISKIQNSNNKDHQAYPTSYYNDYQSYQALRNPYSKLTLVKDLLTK

B1: FbpA-C (domain or fragment)
chain: GSTGSDNRYKSYLEGVRYNVSAAIGSIDKIYNNYKLFEEQRTKMYSTRLDTVTKDQAKKEAEKFTKEELEKDLKELLNYIQVSAKTATNFVYQKEQYAKQRLDKLETEVKTLISEVQGQSHPYEAYKAIVRSKFLQMKDSLEVVKGVIDRDGPWY
notes: Made from pT7HMT-FbpA-C; also called FbpA(222-371); C-terminal truncation construct of B. miyamotoi FbpA; source: E. coli BL21 (DE3), purified (Ni column, TEV, gel filtration)
Take B1: in the assay with active C1r, the Kd – broadly, the concentration at which binding is half-saturated – was 0.39 nM; the koff (commonly the first-order rate constant of dissociation) was determined as 2.7e-05 s⁻¹; the kon (usually the rate constant with which the complex forms) came to 68000 M⁻¹ s⁻¹. In the assay with C1r zymogen, binding was characterised by a dissociation constant (Kd) of 0.85 nM, the koff stood at 1.9e-05 s⁻¹ and the kon worked out at 22000 M⁻¹ s⁻¹.

B2: FbpB-C (domain or fragment)
chain: DNQYKFKLKNITDSVEQALKIAKQIKDDLDIIEFHRIKLSNHYGIRAEEHEKQTAREELSKFSKDKLEADLKKLLSEIEKSLNAATILITYNDYGGNLQSDLSAKTTLEALKTEVSSLITKIQDFNNKDHQAYPTSYYNDYQTYQALRNPYSKLTLVKDLLTRTGIVAR
In the assay with C1r-CCP2-SP, B2 registered a Kd of 1.4 nM, a koff of 0.00055 s⁻¹ and a kon of 390000 M⁻¹ s⁻¹. Further, in the assay with active C1r, the Kd was determined as 1.1 nM, the koff is 7.6e-05 s⁻¹ and the kon was determined as 68000 M⁻¹ s⁻¹.
